To fix the notation:
B1: PRT-348 (protein)
chain: MSQTEDSESLQRLRDIEDFQAEKKDQNVVYTKWLDGVDVKDHDFRKIVDGNIAYYATPLLNGRGWYDINKDFNRDSDKCAAAVAANMFHYWLDINRDNVDRFLRQNPEKHGIIELPDGQLKLSDFLNTYESDHGYRDKSKLFDFISENFNGPVWTDKLLDNYINGYAYNYKYGRTIEDPTKNTSKINFFKEVFNEKILTNNHSIRNQNEFSVLLIEALYTGKAIGLSYGPAGLRHSLGHIISVWGADLDADGNVVAIYVTDSDDKKLTIGDERVGLKRYKISTDDENRLRLTAYEETHNTGGQVRGLWTLDTGKYAWADYFDKTEQTGTDQAEQ
B2: PRT-349 (protein)
chain: MSQTEDSESLQRLRDIEDFQAEKKDQNVVYTKWLDGVDVKDHDFRKIVDGNIAYYATPLLNGRGLYDINKDFNRDSDKCAAAVAANMFHYWLDINRDNVDRFLRQNPEKHGIIELPDGQLKLSDFLNTYESDHGYRDKSKLFDFISENFNGPVWTDKLLDNYINGYAYNYKYGRTIEDPTKNTSKINFFKEVFNEKILTNNHSIRNQNELSVLLSEALYTGKAIGLSYGPAGLRHSLGHIISVWGADLDADGNVVAIYVTDSDDKKLTIGDERVGLKRYKISTDDENRLRLTAYEETHNTGGQVRGLWTLDTGKYAWADYFDKTEQTGTDQAEQ
B3: PRT-364 (protein)
chain: MSQTEDSESLQRLRDIEDFQAEKKKQNVVYTKWLDGVDVKDHDFRKIVDGNEAYYATPLLNGRGFYDINKDFNRDSDKCAAAVAANMFHYWLDRNRDNVDRFLRQNPEKHGIIELPDGQLKLSDFLNTYESDDGYRDKSKLFDFISENFNGPVWTDKLLDNYINGYAYNYKYGRTIEDPTKNTSKINFFKEVFNEKILTNNHSIRNQNELSVLLSEALYTGKAIGLSYGPAGLRHSLGHIISVWGADLDADGNVVAIYVTDSDDKKLTIGDERVGLKRYKISTDDEGRLRLTAYEETHNTGGQIRGLWTLDTGKQAWADYFDKTEQTGTDQAEQ
B4: PRT-357 (protein)
chain: MSQTEDSESLQRLRDIEDFQAEKEKQNVVYTKWLDGVDVKDHDFRKIVDGNSAYYATPLLNGRGWYDINKDFNRDSDKCAAAVAANMFHYWLDRNRDNVDRFLRQNPEKHGIIELPDGQLKLSDFLNTYESDDGYRDKSKLFDFISNNFNGPVWTDKLLDNYINGYAYNYKYGRTIEDPTKNTSKINFFKEVFNEKILTNNHSIRNQNEFSVLLSEALYTGKAIGLSYGPAGLRHSLGHIISVWGADLDADGNVVAIYVTDSDDKKLTIGDERVGLKRYKISTDDEGRLRLTAYEETHNTGGQVRGLWTLDTGKQAWADYFDKTEQTGTDQAEQ
B5: PRT-356 (protein)
chain: MSQTEDSESLQRLRDIEDFQAEKEKQNVVYTKWLDGVDVKDHDFRKIVDGNSAYYATPLLNGRGFYDINKDFNRDSDKCAAAVAANMFHYWLDRNRDNVDRFLRQNPEKHGIIELPDGQLKLSDFLNTYESDDGYRDKSKLFDFISNNFNGPVWTDKLLDNYINGYAYNYKYGRTIEDPTKNTSKINFFKEVFNEKILTNNHSIRNQNEFSVLLSEALYTGKAIGLSYGPAGLRHSLGHIISVWGADLDADGNVVAIYVTDSDDKKLTIGDERVGLKRYKISTDDEGRLRLTAYEETHNTGGQVRGLWTLDTGKQAWADYFDKTEQTGTDQAEQ
B6: PRT-480 (protein)
chain: MITSVWTKGVTPPTDFIYGEDVLHAPYKAGQGWYDITKAFDGGDDLLCGAATAGNMLHWWFDQNKEQIENYLKKHPEKQKINFNGEQMFDVKEAIDTKDSQTNSELFNYFKEKAFPYLSTKHLGVFPDHVIDMFINGYRLSLTNHGPTPVKRGSKDPRGGIFDAVFTRGDQSKLLTNRHDLKNKTLNEISQLIKQELTEGKALGISHTYANVRINHVINLWGADFDAEGNLEAIYVTDSDSNASIGMKKYFVGVNSNGKVAISAKEIEEDNIGAQVLGLFTLSTGQDIWNQTNLEHHHHHH
B7: PRT-446 (protein)
chain: MVTSVWTKGVTPPTDFIKGEDVFHAPYKAGQGWYDITKTFNGKDDLLCGAATAGNMLHWWFDQNKDQIEAYLKEHPEKQKINFNGEQMFDVKEAIDTKDDQTNSKLFEYFKEKAFPYLSTKHLGVFPDHVLDMFINGYRLSLTNHGPTPVKEGSKDPRGGIFDAVFTRGDQSKLLTSRHDFKEKTLKEISDLIKQELTEGKALALSHTYANVRINHVINLWGADFDSNGNLEAIYVTDSDSNASIGMKKYFVGVNSAGKVAISAKEIEDDNIGAQVLGLFTLSTGQDIWNQTNLEHHHHHH
B8: PRT-374 (protein)
chain: MSQTEDSESLQRLRDIEDFQAEKKKQNVVYTKWLDGVDVKDHDFRKIVDGNEAYYATPLLNGRGFYDINKDFNRDNDKCAAAVAANMFHYWLDRNRDNVDRFLRQNPEKHGIIELPDGQLKLSDFLNTYESDDGYRDKSKLFDFISENFNGPVWTDKLLDNYINGYAYNYKYGRTIEDSTKNTSKINFFKEVFNEKILTNNHSIRNQNELSVLLSEALYTGKAIGLSYGPAGLRHSLGHIISVWGADLDADGNVVAIYVTDSDDKKLTIGDERVGLKRYKISTDDEGRLRLTAYEETHNTGGQIRGLWTLDTGKQAWADYFDKTEQTGTDQAEQ
B9: PRT-372 (protein)
chain: MSQTEDSESLQRLRDIEDFQAEKKKQNVVYTKWLDGVDVKDHDFRKIVDGNSAYYATPLLNGRGFYDINKDFNRDNDKCAAAVAANMFHYWLDRNRDNVDRFLRQNPEKHGIIELPDGQLKLSDFLNTYESDDGYRDKSKLFDFISENFNGPVWTDKLLDNYINGYAYNSKYGRTIEDSTKNTSKINFFKEVFNEKILTNNHSIRNQNEFSVLLIEALYTGKAIGLSYGPAGLRHGLGHIISVWGADLDADGNVVAIYVTDSDDKKLTIGDERVGLKRYKISTDDEGRLRLTAYEETHNTGGQIRGLWTLDTGKQAWADYFDKTEQTGTDQAEQ
B10: PRT-365 (protein)
chain: MSQTEDSESLQRLRDIEDFQAEKKKQNVVYTKWLDGVDVKDHDFRKIVDGNEAYYATPLLNGRGFYDINKDFNRDSDKCAAAVAANMFHYWLDRNRDNVDRFLRQNPEKHGIIELPDGQLKLSDFLNTYESDDGYRDKSKLFDFISENFNGPVWTDKLLDNYINGYAYNYKYGRLIEDPTKNTSKINFFKEVFNEKILTNNHSIRNQNELSVLLSEALYTGKAIGLSYGPAGTRHSLGHIISVWGADLDADGNVVAIYVTDSDDKKLTIGDERVGLKRYKISTDDEGRLRLTAYEETHNTGGQIRGLWTLDTGKQAWADYFDKTEQTGTDQAEQ
B11: PRT-340 (protein)
chain: MTITSVWTKGVTPPTPEDFRENNEDVLHAPYLANQGWYDITKAFDGKDNLLCGAATAGNMLHWWFDQNKEEIERYLKKHPEKQKIIFNNQELFDVKAAIDTKDSQTNSKLFDYFRDKAFPNLSARQLGVMPDLVLDMFINGYYLNLGKTQSTDVNRPYQDKDKRGGIFDAVFTRGDQTTLLTARHDLKNKGLNEISDLIKQELTEGKALALSHTYANVSINHVINLWGADFDAEGNLEAIYVTDSDANASIGMKKYFVGRNAHGKVAISAKKIEGDNIGAQVLGLFTLSTGQDQWQKLS
B12: PRT-341 (protein)
chain: MTITSVWTKGVTPPTPEDFRENNEDVLHAPYLANQGWYDITKAFDGKDNLLCGAATAGNMLHWWFDQNKEEIERYLKKHPEKQKIIFNNQEWFDVKAAIDTKDSQTNSKLFNYFRDKAFPNLSARQLGVMPDLVLDMFINGYYLNLPKTQSTDVNRPYQDKDKRGGIFDAVFTRGDQTTLLTARHDLKNKGLNEISDLIKQELTEGKALALSHTYANVSINHVINLWGADFDAEGNLEAIYVTDSDANASIGMKKYAVGVNAHGKVAISAKKIEGDNIGAQVLGLFTLSTGQDIWQKLS
B13: PRT-456 (protein)
chain: MITSVWTKGVTPPTDFIKGEDVFHAPYKAGQGWYDITKAFDGGDDLLCGAATAGNMLHWWFDQNKDQIEAYLKEHPEKQKINFNGEQMFDVKEAIDTKDDQTNSELFNYFKEKAFPYLSTKHLGVFPDHVLDMFINGYRLSLTNHGPTPVKEGSKDPRGGIFDAVFTRGDQSKLLTSRHDLKNKTLNEISQLIKQELTEGKALALSHTYANVRINHVINLWGADFDAEGNLEAIYVTDSDSNASIGMKKYFVGVNSAGKVAISAKEIEDDNIGAQVLGLFTLSTGQDIWNQTNLEHHHHHH

This series addresses pooled human IgG (human IgG1,2,3 and 4).
The protein B1 had an Enzyme Activity Endpoint Assay (purified): Fab′2 of 736 ng/µL, an Enzyme Activity Endpoint Assay (purified): Fc of 415 ng/µL, an Enzyme Activity Endpoint Assay (purified): IgG of 0 ng/µL and an Enzyme Activity Endpoint Assay (purified): scIgG of 325 ng/µL.
B2: the Enzyme Activity Endpoint Assay (purified): Fab′2 is 677 ng/µL, the Enzyme Activity Endpoint Assay (purified): Fc worked out at 215 ng/µL, the Enzyme Activity Endpoint Assay (purified): IgG worked out at 0 ng/µL and the Enzyme Activity Endpoint Assay (purified): scIgG came out at 286 ng/µL.
B3 showed an Enzyme Activity Endpoint Assay (purified): Fab′2 of 863 ng/µL, an Enzyme Activity Endpoint Assay (purified): Fc of 439 ng/µL, an Enzyme Activity Endpoint Assay (purified): IgG of 0 ng/µL and an Enzyme Activity Endpoint Assay (purified): scIgG of 334 ng/µL.
The like results for B4 were, in that order, 724 ng/µL, 389 ng/µL, 0 ng/µL and 313 ng/µL.
The like results for B5 were, in that order, 780 ng/µL, 418 ng/µL, 0 ng/µL and 289 ng/µL.
Turning to B6, the Enzyme Activity Endpoint Assay: Fab′2 was determined as 846 ng/µL, the Enzyme Activity Endpoint Assay: Fc stood at 325 ng/µL, the Enzyme Activity Endpoint Assay: IgG was 0 ng/µL and the Enzyme Activity Endpoint Assay: scIgG stood at 0 ng/µL.
The protein B7 had an Enzyme Activity Endpoint Assay: Fab′2 of 1130 ng/µL, an Enzyme Activity Endpoint Assay: Fc of 427 ng/µL, an Enzyme Activity Endpoint Assay: IgG of 0 ng/µL and an Enzyme Activity Endpoint Assay: scIgG of 0 ng/µL.
In turn, B8 returned an Enzyme Activity Endpoint Assay (purified): Fab′2 of 985 ng/µL, an Enzyme Activity Endpoint Assay (purified): Fc of 536 ng/µL, an Enzyme Activity Endpoint Assay (purified): IgG of 0 ng/µL and an Enzyme Activity Endpoint Assay (purified): scIgG of 379 ng/µL.
In the case of B9, the Enzyme Activity Endpoint Assay: Fab′2 was 0 ng/µL, the Enzyme Activity Endpoint Assay: Fc worked out at 218 ng/µL, the Enzyme Activity Endpoint Assay: IgG was 122 ng/µL and the Enzyme Activity Endpoint Assay: scIgG was 560 ng/µL.
B10 yielded an Enzyme Activity Endpoint Assay (purified): Fab′2 of 735 ng/µL, an Enzyme Activity Endpoint Assay (purified): Fc of 385 ng/µL, an Enzyme Activity Endpoint Assay (purified): IgG of 0 ng/µL and an Enzyme Activity Endpoint Assay (purified): scIgG of 312 ng/µL.
Protein B11 returned an Enzyme Activity Endpoint Assay (purified): Fab′2 of 692 ng/µL, an Enzyme Activity Endpoint Assay (purified): Fc of 374 ng/µL, an Enzyme Activity Endpoint Assay (purified): IgG of 0 ng/µL and an Enzyme Activity Endpoint Assay (purified): scIgG of 307 ng/µL.
Turning to B12, the Enzyme Activity Endpoint Assay (purified): Fab′2 was determined as 832 ng/µL, the Enzyme Activity Endpoint Assay (purified): Fc was found to be 199 ng/µL, the Enzyme Activity Endpoint Assay (purified): IgG came out at 0 ng/µL and the Enzyme Activity Endpoint Assay (purified): scIgG came to 318 ng/µL.
Protein B13 showed an Enzyme Activity Endpoint Assay: Fab′2 of 1170 ng/µL, an Enzyme Activity Endpoint Assay: Fc of 497 ng/µL, an Enzyme Activity Endpoint Assay: IgG of 0 ng/µL and an Enzyme Activity Endpoint Assay: scIgG of 0 ng/µL.

These data come from patent US20250027068.
